The labels stand for the following.
B1: NRC3_random_hg19_80_o1 (dsDNA)
DNA 1: GCCAATACAGCTTTGGCTTCTGCAGAATCTGAGGAAGCGATTGACAGCGTAGAATGAAGG
DNA 2: CCTTCATTCTACGCTGTCAATCGCTTCCTCAGATTCTGCAGAAGCCAAAGCTGTATTGGC
B2: NRC3_wobSeed77_DR3_T22C_o1 (dsDNA)
DNA 1: GCACTTACGGGTCAACGAGGTCATAGCACGCGTATAGCGATTGACAGCGTAGAATGAAGG
DNA 2: CCTTCATTCTACGCTGTCAATCGCTATACGCGTGCTATGACCTCGTTGACCCGTAAGTGC
B3: NRC3_wobSeed49_DR2_T8G_o1 (dsDNA)
DNA 1: GCCAAACGAGGTCAAGAGGTCAAAGTCCGCTTCCCGGCGATTGACAGCGTAGAATGAAGG
DNA 2: CCTTCATTCTACGCTGTCAATCGCCGGGAAGCGGACTTTGACCTCTTGACCTCGTTTGGC
B4: NRC3_random_hg19_419_o1 (dsDNA)
DNA 1: GCAGAGCAGACTTCCTGTGTATGTTAGGATGAAACCGCGATTGACAGCGTAGAATGAAGG
DNA 2: CCTTCATTCTACGCTGTCAATCGCGGTTTCATCCTAACATACACAGGAAGTCTGCTCTGC
B5: NRC3_wobSeed73_DR3_A18G_o1 (dsDNA)
DNA 1: GCCAAACTAGGTCACAGGGGTCAAAGTCCGTGCGTAGCGATTGACAGCGTAGAATGAAGG
DNA 2: CCTTCATTCTACGCTGTCAATCGCTACGCACGGACTTTGACCCCTGTGACCTAGTTTGGC
B6: NRC3_random_hg19_47_o1 (dsDNA)
DNA 1: GCGCCTTCAGGAACATGCTATTCTGTCTATGGAGTCGCGATTGACAGCGTAGAATGAAGG
DNA 2: CCTTCATTCTACGCTGTCAATCGCGACTCCATAGACAGAATAGCATGTTCCTGAAGGCGC
B7: NRC3_wobSeed138_DR5_C13G_o1 (dsDNA)
DNA 1: GCGATACAGGGTGAGCTAGAGGCCAGAGTATGGAAAGCGATTGACAGCGTAGAATGAAGG
DNA 2: CCTTCATTCTACGCTGTCAATCGCTTTCCATACTCTGGCCTCTAGCTCACCCTGTATCGC
B8: NRC3_wobSeed119_DR4_G23C_o1 (dsDNA)
DNA 1: GCGGAACGAGGGCATTCGAGTTCATAGCATGGCGATGCGATTGACAGCGTAGAATGAAGG
DNA 2: CCTTCATTCTACGCTGTCAATCGCATCGCCATGCTATGAACTCGAATGCCCTCGTTCCGC
B9: NRC3_wobSeed94_DR3_G13C_o1 (dsDNA)
DNA 1: GCCTACCAAGGTCAACAAGGTCGTTGATTACTATTCGCGATTGACAGCGTAGAATGAAGG
DNA 2: CCTTCATTCTACGCTGTCAATCGCGAATAGTAATCAACGACCTTGTTGACCTTGGTAGGC
B10: NRC3_wobSeed120_DR4_G22T_o1 (dsDNA)
DNA 1: GCCCGAGTAGGTTACGAGGGGTCATTCAGTGCGAATGCGATTGACAGCGTAGAATGAAGG
DNA 2: CCTTCATTCTACGCTGTCAATCGCATTCGCACTGAATGACCCCTCGTAACCTACTCGGGC
B11: NRC3_wobSeed117_DR4_A23T_o1 (dsDNA)
DNA 1: GCCGTCAAAGTTCAACTAAGGTTACGTAAAGCACGCGCGATTGACAGCGTAGAATGAAGG
DNA 2: CCTTCATTCTACGCTGTCAATCGCGCGTGCTTTACGTAACCTTAGTTGAACTTTGACGGC
B12: NRC3_wobSeed133_DR5_C18T_o1 (dsDNA)
DNA 1: GCCGTCCAAGGTCAATGTTAGGTCAGTGAAAGCATTGCGATTGACAGCGTAGAATGAAGG
DNA 2: CCTTCATTCTACGCTGTCAATCGCAATGCTTTCACTGACCTAACATTGACCTTGGACGGC
B13: NRC3_random_hg19_103_o1 (dsDNA)
DNA 1: GCTCAGGAGTTCGAGAACAGCCTGGCTAACATGGCGGCGATTGACAGCGTAGAATGAAGG
DNA 2: CCTTCATTCTACGCTGTCAATCGCCGCCATGTTAGCCAGGCTGTTCTCGAACTCCTGAGC
B14: NRC3_wobSeed113_DR4_G15A_o1 (dsDNA)
DNA 1: GCATATGTAGGTTAACTGGGGTCATTCAGACTAGGCGCGATTGACAGCGTAGAATGAAGG
DNA 2: CCTTCATTCTACGCTGTCAATCGCGCCTAGTCTGAATGACCCCAGTTAACCTACATATGC
B15: NRC3_random_hg19_372_o1 (dsDNA)
DNA 1: GCGAGGTTGCAGTGAGCCAAGATTGCACCACTGCACGCGATTGACAGCGTAGAATGAAGG
DNA 2: CCTTCATTCTACGCTGTCAATCGCGTGCAGTGGTGCAATCTTGGCTCACTGCAACCTCGC
B16: NRC3_wobSeed114_DR4_C22T_o1 (dsDNA)
DNA 1: GCAATACAGGGTCATCGTAGGTCAGAGTACGCACAGGCGATTGACAGCGTAGAATGAAGG
DNA 2: CCTTCATTCTACGCTGTCAATCGCCTGTGCGTACTCTGACCTACGATGACCCTGTATTGC

Sequence of FXR:RXRa (Q96RI1 whole entry, chain 1 of 2): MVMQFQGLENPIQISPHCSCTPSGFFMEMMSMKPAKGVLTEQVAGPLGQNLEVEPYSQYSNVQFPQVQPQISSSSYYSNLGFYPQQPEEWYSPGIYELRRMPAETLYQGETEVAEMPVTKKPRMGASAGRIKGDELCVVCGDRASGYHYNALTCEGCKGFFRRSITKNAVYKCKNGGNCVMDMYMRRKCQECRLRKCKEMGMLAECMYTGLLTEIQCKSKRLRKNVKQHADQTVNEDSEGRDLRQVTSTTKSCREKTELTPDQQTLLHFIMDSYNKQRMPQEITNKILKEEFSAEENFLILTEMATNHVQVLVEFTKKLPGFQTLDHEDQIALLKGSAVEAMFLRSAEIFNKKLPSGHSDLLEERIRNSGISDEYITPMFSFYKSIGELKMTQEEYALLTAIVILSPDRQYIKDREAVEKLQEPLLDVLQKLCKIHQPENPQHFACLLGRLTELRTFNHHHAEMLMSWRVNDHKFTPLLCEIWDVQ
Sequence of FXR:RXRa (P19793 whole entry, chain 2 of 2): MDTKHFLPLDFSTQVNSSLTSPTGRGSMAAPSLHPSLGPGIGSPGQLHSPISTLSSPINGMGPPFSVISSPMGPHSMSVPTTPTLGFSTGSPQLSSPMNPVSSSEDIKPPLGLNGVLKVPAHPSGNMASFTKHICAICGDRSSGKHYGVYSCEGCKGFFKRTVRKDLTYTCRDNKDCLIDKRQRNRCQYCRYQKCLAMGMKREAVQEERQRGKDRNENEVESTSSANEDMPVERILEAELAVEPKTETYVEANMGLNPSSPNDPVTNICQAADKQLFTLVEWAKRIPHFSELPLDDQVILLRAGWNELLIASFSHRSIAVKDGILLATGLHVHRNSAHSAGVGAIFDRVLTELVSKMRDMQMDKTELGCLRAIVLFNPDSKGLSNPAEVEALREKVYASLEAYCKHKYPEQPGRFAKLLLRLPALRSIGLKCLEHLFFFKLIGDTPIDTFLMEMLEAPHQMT
Sequence of RARb:RXRa (P10826 whole entry, chain 1 of 2): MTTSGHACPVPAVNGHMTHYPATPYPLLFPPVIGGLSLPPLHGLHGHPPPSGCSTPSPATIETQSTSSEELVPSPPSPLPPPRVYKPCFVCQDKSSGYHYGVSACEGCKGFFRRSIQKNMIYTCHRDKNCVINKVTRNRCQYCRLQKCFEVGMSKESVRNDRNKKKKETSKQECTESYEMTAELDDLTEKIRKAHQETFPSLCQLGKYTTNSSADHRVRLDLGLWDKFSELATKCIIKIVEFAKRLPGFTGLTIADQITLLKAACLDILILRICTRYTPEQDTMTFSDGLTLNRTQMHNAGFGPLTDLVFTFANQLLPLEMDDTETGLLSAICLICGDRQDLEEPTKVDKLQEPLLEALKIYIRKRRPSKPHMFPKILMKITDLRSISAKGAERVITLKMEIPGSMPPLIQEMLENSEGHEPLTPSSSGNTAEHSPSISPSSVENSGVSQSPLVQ
Sequence of RARb:RXRa (P19793 whole entry, chain 2 of 2): as the sequence (P19793 whole entry, chain 2 of 2) above
Sequence of LXRb:RXRa (P55055 whole entry, chain 1 of 2): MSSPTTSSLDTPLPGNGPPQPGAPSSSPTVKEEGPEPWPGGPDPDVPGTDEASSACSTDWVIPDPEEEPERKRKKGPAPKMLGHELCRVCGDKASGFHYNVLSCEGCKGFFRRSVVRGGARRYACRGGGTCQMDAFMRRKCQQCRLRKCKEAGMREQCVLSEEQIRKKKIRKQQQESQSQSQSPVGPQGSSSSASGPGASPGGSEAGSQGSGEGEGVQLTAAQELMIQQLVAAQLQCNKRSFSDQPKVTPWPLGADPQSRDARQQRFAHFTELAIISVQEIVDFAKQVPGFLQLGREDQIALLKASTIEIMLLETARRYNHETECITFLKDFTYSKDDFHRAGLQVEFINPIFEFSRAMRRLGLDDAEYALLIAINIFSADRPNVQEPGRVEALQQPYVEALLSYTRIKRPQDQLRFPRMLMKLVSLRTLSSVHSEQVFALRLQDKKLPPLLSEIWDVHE
Sequence of LXRb:RXRa (P19793 whole entry, chain 2 of 2): as the sequence (P19793 whole entry, chain 2 of 2) above

For one data set, the target named is RXRa (Homo sapiens, UniProt P19793). In words: no ligand; PBM; 180 nM; PBS pH 7.4, 2% milk, 0.02% Triton X-100, 1 mM DTT, BSA, 0.4 mg/ml salmon testes DNA. The following applies: tags: His cleaved; chain copies: 2; label: surface-attached array probe.
Sequence of RXRa (P19793 whole entry): as the sequence (P19793 whole entry, chain 2 of 2) above
Take B1: the binding signal was -0.53 PBM z-score against 500 random probes.

As for B2, the binding signal is 7.88 PBM z-score against 500 random probes.

As for B3, the binding signal is 9.6 PBM z-score against 500 random probes.

A further data set deals with THRa:RXRa (Homo sapiens, UniProt P10827;P19793 full;full). In words: no ligand; PBM; 90 nM : 90 nM RXRa; PBS pH 7.4, 2% milk, 0.02% Triton X-100, 1 mM DTT, BSA, 0.4 mg/ml salmon testes DNA. The following applies: tags: His kept;His cleaved; copies: 1;1; label: surface-attached array probe.
B4: the binding signal is -0.56 PBM z-score against 500 random probes.

In the case of B5, the binding signal was 5.07 PBM z-score against 500 random probes.

In the case of B6, the binding signal is -0.54 PBM z-score against 500 random probes.

Regarding B7, the binding signal was 0.33 PBM z-score against 500 random probes.

B8: the binding signal is 4.79 PBM z-score against 500 random probes.

On to B1, for which the binding signal was -1.02 PBM z-score against 500 random probes.

For the molecule B9, the binding signal was 4.82 PBM z-score against 500 random probes.

Regarding B10, the binding signal is 4.77 PBM z-score against 500 random probes.

On to B11, for which the binding signal is 5.54 PBM z-score against 500 random probes.

On to B12, for which the binding signal was 5.15 PBM z-score against 500 random probes.

For B13, the binding signal was -0.5 PBM z-score against 500 random probes.

For B14, the binding signal was 5.49 PBM z-score against 500 random probes.

For B2, the binding signal is 4.97 PBM z-score against 500 random probes.

On to B3, for which the binding signal was 5.13 PBM z-score against 500 random probes.

Turning to B15, the binding signal is -0.05 PBM z-score against 500 random probes.

On to B16, for which the binding signal was 5.25 PBM z-score against 500 random probes.

The next data set has as its target PPARg:RXRa (Homo sapiens, UniProt P37231;P19793 full;full). In words: no ligand; PBM; 180 nM : 90 nM RXRa; PBS pH 7.4, 2% milk, 0.02% Triton X-100, 1 mM DTT, BSA, 0.4 mg/ml salmon testes DNA. The following applies: tags: His kept;His cleaved; copies: 1;1; label: surface-attached array probe.
B5: the binding signal was 10.8 PBM z-score against 500 random probes.

On to B6, for which the binding signal was 0.27 PBM z-score against 500 random probes.

As for B7, the binding signal is 0.43 PBM z-score against 500 random probes.

As to B1, the binding signal was -0.24 PBM z-score against 500 random probes.

Consider B12, for which the binding signal was 4 PBM z-score against 500 random probes.

For the molecule B15, the binding signal was -0.12 PBM z-score against 500 random probes.

For the next data set, the target named is RARb:RXRa (Homo sapiens, UniProt P10826;P19793 full;full). In words: no ligand; PBM; 270 nM : 90 nM RXRa; PBS pH 7.4, 2% milk, 0.02% Triton X-100, 1 mM DTT, BSA, 0.4 mg/ml salmon testes DNA. The following applies: tags: His kept;His cleaved; copies: 1;1; label: surface-attached array probe. The procedure, abridged:
(§1)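 Custom Agilent 4×180K protein-binding microarrays carried double-stranded probes, each with a 34-nt variable region. These regions held direct-repeat seeds, single-nucleotide variants, half-site ablations and random human genomic background sequences. Ligand-free nuclear receptor dimers were incubated on the arrays for 1 h, antibodies against each partner (one per run) detected binding, and scanned fluorescence was regression-normalized. Binding z-scores take the random background probes as reference.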
As for B9, the binding signal was 5.51 PBM z-score against 500 random probes.

As to B12, the binding signal was 5.45 PBM z-score against 500 random probes.

Take B3: the binding signal was 6.35 PBM z-score against 500 random probes.

For another data set, the target named is VDR:RXRa (Homo sapiens, UniProt P11473;P19793 full;full). Described as above. The following applies: tags: His kept;His cleaved; copies: 1;1; label: surface-attached array probe. The procedure, abridged:
as §1
B8: the binding signal is 7.03 PBM z-score against 500 random probes.

With B9, the binding signal is 8.68 PBM z-score against 500 random probes.

Regarding B10, the binding signal was 6.94 PBM z-score against 500 random probes.

Regarding B14, the binding signal was 7.19 PBM z-score against 500 random probes.

With B2, the binding signal was 8.66 PBM z-score against 500 random probes.

In the case of B3, the binding signal was 7.24 PBM z-score against 500 random probes.

The target of the next data set is LXRa:RXRa (Homo sapiens, UniProt Q13133;P19793 full;full). Described as above. The following applies: tags: His kept;His cleaved; copies: 1;1; label: surface-attached array probe. The procedure, abridged: as §1
In the case of B4, the binding signal is -0.87 PBM z-score against 500 random probes.

As to B8, the binding signal is 6.87 PBM z-score against 500 random probes.

With B9, the binding signal was 6.7 PBM z-score against 500 random probes.

B10: the binding signal is 8.11 PBM z-score against 500 random probes.

With B11, the binding signal is 7.31 PBM z-score against 500 random probes.

On to B13, for which the binding signal is 0.13 PBM z-score against 500 random probes.

For the molecule B14, the binding signal was 7.87 PBM z-score against 500 random probes.

Turning to B3, the binding signal was 7.08 PBM z-score against 500 random probes.

Regarding B16, the binding signal was 7.62 PBM z-score against 500 random probes.

The target in another data set is PPARa:RXRa (Homo sapiens, UniProt Q07869;P19793 full;full). The data set is described as above. The following applies: tags: GST kept;His cleaved; copies: 1;1; label: surface-attached array probe. The procedure, abridged:
as §1
For the molecule B5, the binding signal is 7.23 PBM z-score against 500 random probes.

As for B3, the binding signal is 7.33 PBM z-score against 500 random probes.

A further data set deals with LXRb:RXRa (Homo sapiens, UniProt P55055;P19793 full;full). Described as above. The following applies: tags: His kept;His cleaved; copies: 1;1; label: surface-attached array probe. The procedure, abridged:
as §1
In the case of B9, the binding signal was 5.94 PBM z-score against 500 random probes.

For B10, the binding signal is 7.35 PBM z-score against 500 random probes.

Consider B14, for which the binding signal was 6.88 PBM z-score against 500 random probes.

For the molecule B2, the binding signal was 6.07 PBM z-score against 500 random probes.

Consider B3, for which the binding signal is 6.98 PBM z-score against 500 random probes.

With B16, the binding signal is 6.24 PBM z-score against 500 random probes.

Another data set has as its target FXR:RXRa (Homo sapiens, UniProt Q96RI1;P19793 full;full). Described as above. The following applies: tags: His kept;His cleaved; copies: 1;1; label: surface-attached array probe. The procedure, abridged:
as §1
Consider B4, for which the binding signal was -0.65 PBM z-score against 500 random probes.

Regarding B9, the binding signal was 8.19 PBM z-score against 500 random probes.

Consider B3, for which the binding signal was 8.68 PBM z-score against 500 random probes.

For another data set, the target named is PXR:RXRa (Homo sapiens, UniProt O75469;P19793 full;full). The description is as above. The following applies: tags: His kept;His cleaved; copies: 1;1; label: surface-attached array probe. The method in brief: as §1
Sequence of PXR:RXRa (O75469 whole entry, chain 1 of 2): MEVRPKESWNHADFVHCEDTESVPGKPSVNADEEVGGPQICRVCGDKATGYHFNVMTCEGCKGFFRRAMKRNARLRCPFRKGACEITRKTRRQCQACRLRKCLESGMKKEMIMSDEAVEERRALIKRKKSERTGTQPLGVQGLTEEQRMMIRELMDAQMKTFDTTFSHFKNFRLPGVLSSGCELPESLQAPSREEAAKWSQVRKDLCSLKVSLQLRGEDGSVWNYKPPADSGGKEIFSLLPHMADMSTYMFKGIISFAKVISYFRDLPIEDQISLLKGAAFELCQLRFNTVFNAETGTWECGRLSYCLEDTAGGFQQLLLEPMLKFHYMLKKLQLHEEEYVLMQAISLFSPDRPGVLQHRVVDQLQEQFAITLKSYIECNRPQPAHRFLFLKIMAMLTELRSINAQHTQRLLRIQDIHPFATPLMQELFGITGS
Sequence of PXR:RXRa (P19793 whole entry, chain 2 of 2): as the sequence (P19793 whole entry, chain 2 of 2) above
Turning to B4, the binding signal was -0.62 PBM z-score against 500 random probes.

As for B8, the binding signal is 7.11 PBM z-score against 500 random probes.

In the case of B9, the binding signal was 6.83 PBM z-score against 500 random probes.

For the molecule B10, the binding signal was 6.59 PBM z-score against 500 random probes.

Consider B11, for which the binding signal is 6.82 PBM z-score against 500 random probes.

Regarding B13, the binding signal is 0.28 PBM z-score against 500 random probes.

As for B14, the binding signal is 6.99 PBM z-score against 500 random probes.

As to B2, the binding signal is 6.59 PBM z-score against 500 random probes.

Take B3: the binding signal was 7.24 PBM z-score against 500 random probes.

Turning to B16, the binding signal was 6.36 PBM z-score against 500 random probes.

In another data set the target is RARg:RXRa (Homo sapiens, UniProt P13631;P19793 full;full). The data set is described as above. The following applies: tags: His kept;His cleaved; copies: 1;1; label: surface-attached array probe. The method in brief: as §1
With B5, the binding signal was 7.8 PBM z-score against 500 random probes.

In the case of B3, the binding signal was 9.13 PBM z-score against 500 random probes.

(Values after paper PMC6555819, “Comprehensive study of nuclear receptor DNA binding provides a revised framework for understanding receptor specificity”.)
